What was measured:
Dpb11 [1] = target: Dpb11 (UniProt P47027); assay: Flag purification, SILAC quantitative MS; settings: reference: wild type; sites S486
Dpb11 [2] = target: Dpb11 (UniProt P47027); assay: anti-Flag co-IP, Western blot; settings: reference: wild type (undamaged or MMS); sites S486

Row | fold change (Dpb11 [1]) | Substance | binding against the reference (Dpb11 [2])
1 | weaker | Slx4 (from UniProt Q12098) S486A | –
2 | – | Slx4 (from UniProt Q12098) S486A (undamaged or MMS) | weaker

From article PMC4102767
